To fix the notation:
B1: library; a variant is named by its letters at X, in order (parent)
chain: MNIQIGELAKRTACPVVTIRFYEQEGLLPPPGRSRGNFRLYGEEHVERLQFIRHCRSLDMPLSDVRTLLSYRKRPDQDCGEVXMLLDEHIRQVESRIGALLELKHHLVELREACSGARPAQSCGILQXLSXCVCXTRGTTAHXSD

Variants of B1 are the subject of data set [1]. Description: sfGFP reporter fluorescence (15 h) (µM FITC); higher = higher leak. Particulars: library round: Round 2; ligand: none. The protocol: (§1)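 Cell-free biosensing: 1 µL Echo-assembled CFE reactions with linear PbrR variant templates (5 nM) and pPbrR-sfGFP reporter, with 1 µM Pb, 30 µM Zn or no ligand; endpoint sfGFP fluorescence after 15 h at 30 °C calibrated as µM FITC. Round 2 ML-predicted PbrR mutants; up to 3 biological replicates.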

In data set [2] the parent is B1. Description: sfGFP reporter fluorescence (15 h) (µM FITC); higher = stronger transcriptional activation. Conditions: library round: Round 2. The protocol:
as §1

± gives the standard deviation of the averaged measurements.

On to NGTAT, for which the values for the sfGFP reporter fluorescence in data set [1], in data set [2] (ligand: 1 µM Pb) and in data set [2] (ligand: 30 µM Zn) were 0.0539 ± 0.0037, 0.0908 ± 0.0051 and 0.937 ± 0.052, respectively.
For NGCDR K104R, the sfGFP reporter fluorescence in data set [1] worked out at 0.047 ± 0.0037; in data set [2] (ligand: 1 µM Pb), 0.0672 ± 0.0019; in data set [2] (ligand: 30 µM Zn) it was 0.0986 ± 0.0051.
TGDDP D64E V108N: the sfGFP reporter fluorescence in data set [1] turned out to be 0.0416 ± 0.00051; in data set [2] (ligand: 1 µM Pb), 0.0357 ± 0.0033; in data set [2] (ligand: 30 µM Zn), 0.0616 ± 0.0048.
On the same counts, the results for TGSDP H142A are 0.0642 ± 0.0043, 0.081 ± 0.0053 and 0.451 ± 0.086.
For the variant NGDAM Q121A, the sfGFP reporter fluorescence in data set [1] stood at 0.0666 ± 0.0079; in data set [2] (ligand: 1 µM Pb), 0.106 ± 0.0059; in data set [2] (ligand: 30 µM Zn), 1.36 ± 0.13.
In the case of NIDDP I90L C134E, the sfGFP reporter fluorescence in data set [1] was 0.0691 ± 0.0074; in data set [2] (ligand: 1 µM Pb), 0.0913 ± 0.0088; in data set [2] (ligand: 30 µM Zn), 1.77 ± 0.32.
Turning to NHDDA V108L, the values for the sfGFP reporter fluorescence in data set [1], in data set [2] (ligand: 1 µM Pb) and in data set [2] (ligand: 30 µM Zn) were 0.0477 ± 0.0017, 0.0671 ± 0.0043 and 0.271 ± 0.03, respectively.
As for NGYAP K104R, the figures for the sfGFP reporter fluorescence in data set [1], in data set [2] (ligand: 1 µM Pb) and in data set [2] (ligand: 30 µM Zn) were 0.0664 ± 0.0054, 0.0679 ± 0.0057 and 0.698 ± 0.11, respectively.
As for TGDDP V82I L85K, the figures for the sfGFP reporter fluorescence in data set [1], in data set [2] (ligand: 1 µM Pb) and in data set [2] (ligand: 30 µM Zn) were 0.0407 ± 0.0021, 0.0368 ± 0.00078 and 0.0458 ± 0.0007, respectively.
For the variant NIDDP D64K V108E, the figures for the sfGFP reporter fluorescence in data set [1], in data set [2] (ligand: 1 µM Pb) and in data set [2] (ligand: 30 µM Zn) were 0.181 ± 0.026, 0.581 ± 0.051 and 3.32 ± 0.42, respectively.
For NHDDA E109L, the results for the sfGFP reporter fluorescence in data set [1], in data set [2] (ligand: 1 µM Pb) and in data set [2] (ligand: 30 µM Zn) were 0.0459 ± 0.0013, 0.0809 ± 0.0052 and 0.343 ± 0.014, respectively.
With NGDPP M84A R111A, the sfGFP reporter fluorescence in data set [1] worked out at 0.0671 ± 0.0045; in data set [2] (ligand: 1 µM Pb), 0.0854 ± 0.013; in data set [2] (ligand: 30 µM Zn), 0.919 ± 0.12.
Take TGSPP: the results for the sfGFP reporter fluorescence in data set [1], in data set [2] (ligand: 1 µM Pb) and in data set [2] (ligand: 30 µM Zn) were 0.0436 ± 0.0022, 0.125 ± 0.0052 and 0.305 ± 0.0072, respectively.
Take NIDDP P61N D64K K104V L107A: the sfGFP reporter fluorescence in data set [1] was determined as 0.0923 ± 0.0059; in data set [2] (ligand: 1 µM Pb) it was 0.215 ± 0.018; in data set [2] (ligand: 30 µM Zn), 1.34 ± 0.1.
As for NTDAP M60L P61N D64K, the sfGFP reporter fluorescence worked out at 0.878 ± 0.074 in data set [1], 2.33 ± 0.17 in data set [2] (ligand: 1 µM Pb) and 3.33 ± 0.36 in data set [2] (ligand: 30 µM Zn).
On to TGADP V108L, for which the figures for the sfGFP reporter fluorescence in data set [1], in data set [2] (ligand: 1 µM Pb) and in data set [2] (ligand: 30 µM Zn) were 0.0451 ± 0.00078, 0.0942 ± 0.0052 and 0.321 ± 0.0054, respectively.
On the same counts, the results for TGDDP E109D E112K are 0.0468 ± 0.0013, 0.0781 ± 0.0022 and 0.418 ± 0.034.
As to SGDDP I90L D145A, the results for the sfGFP reporter fluorescence in data set [1], in data set [2] (ligand: 1 µM Pb) and in data set [2] (ligand: 30 µM Zn) were 0.0442 ± 0.0022, 0.046 ± 0.001 and 0.122 ± 0.0052, respectively.
On the same counts, the results for NGDDW R74Q G138A are 0.0503 ± 0.0034, 0.05902 ± 0.00051 and 0.58 ± 0.017.
NMDAP L85I: the sfGFP reporter fluorescence was found to be 0.11 ± 0.012 in data set [1], 0.278 ± 0.017 in data set [2] (ligand: 1 µM Pb) and 3.11 ± 0.44 in data set [2] (ligand: 30 µM Zn).
With NGLAP P61T, the sfGFP reporter fluorescence came to 0.217 ± 0.015 in data set [1], 0.402 ± 0.021 in data set [2] (ligand: 1 µM Pb) and 1.9 ± 0.27 in data set [2] (ligand: 30 µM Zn).
Take NGCDA L107C: the sfGFP reporter fluorescence in data set [1] amounted to 0.757 ± 0.089; in data set [2] (ligand: 1 µM Pb) it was 1.68 ± 0.17; in data set [2] (ligand: 30 µM Zn), 3.37 ± 0.31.
For NIDDP H105E L107C C134E, the sfGFP reporter fluorescence in data set [1] came out at 2.32 ± 0.044; in data set [2] (ligand: 1 µM Pb) it was 2.05 ± 0.18; in data set [2] (ligand: 30 µM Zn) it was 2.82 ± 0.14.
Take NGDDP P61N L107C E109H: the sfGFP reporter fluorescence in data set [1] stood at 0.627 ± 0.1; in data set [2] (ligand: 1 µM Pb), 1.51 ± 0.22; in data set [2] (ligand: 30 µM Zn), 2.62 ± 0.31.
As to NADAP K104R, the sfGFP reporter fluorescence in data set [1] came to 0.123 ± 0.0024; in data set [2] (ligand: 1 µM Pb) it was 0.419 ± 0.072; in data set [2] (ligand: 30 µM Zn), 2.34 ± 0.033.
As for TGDRP V108L, the sfGFP reporter fluorescence in data set [1] was 0.0448 ± 0.0017; in data set [2] (ligand: 1 µM Pb), 0.0788 ± 0.0022; in data set [2] (ligand: 30 µM Zn), 0.327 ± 0.012.
Turning to TGCDL, the sfGFP reporter fluorescence was found to be 0.045 ± 0.00089 in data set [1], 0.0743 ± 0.011 in data set [2] (ligand: 1 µM Pb) and 0.0958 ± 0.0017 in data set [2] (ligand: 30 µM Zn).
Regarding TGCDA, the sfGFP reporter fluorescence amounted to 0.0468 ± 0.0016 in data set [1], 0.0758 ± 0.0041 in data set [2] (ligand: 1 µM Pb) and 0.0857 ± 0.0083 in data set [2] (ligand: 30 µM Zn).
Take TGCDI: the sfGFP reporter fluorescence in data set [1] was determined as 0.0463 ± 0.0019; in data set [2] (ligand: 1 µM Pb), 0.0711 ± 0.0029; in data set [2] (ligand: 30 µM Zn), 0.0916 ± 0.0046.
On to NIDDP P61N C134E, for which the sfGFP reporter fluorescence in data set [1] turned out to be 0.308 ± 0.021; in data set [2] (ligand: 1 µM Pb) it was 0.544 ± 0.11; in data set [2] (ligand: 30 µM Zn), 3.19 ± 0.055.
Take SGDAA: the sfGFP reporter fluorescence worked out at 0.0628 ± 0.0043 in data set [1], 0.0745 ± 0.0027 in data set [2] (ligand: 1 µM Pb) and 0.449 ± 0.062 in data set [2] (ligand: 30 µM Zn).
As for TGDDP D64T R111A, the sfGFP reporter fluorescence is 0.09 ± 0.012 in data set [1], 0.212 ± 0.024 in data set [2] (ligand: 1 µM Pb) and 2.38 ± 0.096 in data set [2] (ligand: 30 µM Zn).
Regarding TGDDP D64T R111L, the sfGFP reporter fluorescence in data set [1] stood at 0.0779 ± 0.0063; in data set [2] (ligand: 1 µM Pb) it was 0.151 ± 0.011; in data set [2] (ligand: 30 µM Zn), 1.9 ± 0.12.
For the variant TIDDP L107C E109H, the sfGFP reporter fluorescence is 0.247 ± 0.016 in data set [1], 1.19 ± 0.15 in data set [2] (ligand: 1 µM Pb) and 2.03 ± 0.17 in data set [2] (ligand: 30 µM Zn).
Take NIDDP L107C G124A: the sfGFP reporter fluorescence in data set [1] was found to be 0.942 ± 0.1; in data set [2] (ligand: 1 µM Pb), 2.53 ± 0.21; in data set [2] (ligand: 30 µM Zn), 3.41 ± 0.84.
In the case of TGDDP R96A K104V, the results for the sfGFP reporter fluorescence in data set [1], in data set [2] (ligand: 1 µM Pb) and in data set [2] (ligand: 30 µM Zn) were 0.052 ± 0.0012, 0.0513 ± 0.0043 and 0.0712 ± 0.0018, respectively.
As to NICDP I125L, the values for the sfGFP reporter fluorescence in data set [1], in data set [2] (ligand: 1 µM Pb) and in data set [2] (ligand: 30 µM Zn) were 0.0468 ± 0.0013, 0.0446 ± 0.0014 and 0.0531 ± 0.0013, respectively.
The matching figures for TIDAP L107C G124A: 0.27 ± 0.037, 1.38 ± 0.23 and 2.81 ± 0.45.
As for NPDAP I90L, the sfGFP reporter fluorescence in data set [1] turned out to be 0.0467 ± 0.0027; in data set [2] (ligand: 1 µM Pb), 0.04301 ± 0.00034; in data set [2] (ligand: 30 µM Zn) it was 0.0482 ± 0.0039.
On the same counts, the results for NTCDP M60L are 0.222 ± 0.016, 0.784 ± 0.021 and 2.43 ± 0.27.
With NGCDP P61N H106A, the sfGFP reporter fluorescence was 0.0622 ± 0.0038 in data set [1], 0.166 ± 0.0088 in data set [2] (ligand: 1 µM Pb) and 0.457 ± 0.079 in data set [2] (ligand: 30 µM Zn).
Take NGDDP P61N L107C C134I: the sfGFP reporter fluorescence in data set [1] is 2.22 ± 0.18; in data set [2] (ligand: 1 µM Pb), 2.54 ± 0.38; in data set [2] (ligand: 30 µM Zn) it was 3.82 ± 0.36.
Take NGDAP P61D D64K L107C: the values for the sfGFP reporter fluorescence in data set [1], in data set [2] (ligand: 1 µM Pb) and in data set [2] (ligand: 30 µM Zn) were 2.53 ± 0.22, 1.89 ± 0.26 and 2.38 ± 0.23, respectively.
As to NGCAL, the results for the sfGFP reporter fluorescence in data set [1], in data set [2] (ligand: 1 µM Pb) and in data set [2] (ligand: 30 µM Zn) were 0.0515 ± 0.0016, 0.0668 ± 0.0024 and 0.255 ± 0.022, respectively.

Values taken from the supplement of paper PMC12783771.
